Measured values from patent US20210332133A1 (TENEOTWO, published 2021).
Numbering of substitutions follows the chain as printed.

T1: human CD19 on CD19-positive cells (Daudi, Raji, Ramos; CD19+ tumor cell line) (human, UniProt P15391 20-556)
T1 construct: whole, on cells
T1 sequence (looked up): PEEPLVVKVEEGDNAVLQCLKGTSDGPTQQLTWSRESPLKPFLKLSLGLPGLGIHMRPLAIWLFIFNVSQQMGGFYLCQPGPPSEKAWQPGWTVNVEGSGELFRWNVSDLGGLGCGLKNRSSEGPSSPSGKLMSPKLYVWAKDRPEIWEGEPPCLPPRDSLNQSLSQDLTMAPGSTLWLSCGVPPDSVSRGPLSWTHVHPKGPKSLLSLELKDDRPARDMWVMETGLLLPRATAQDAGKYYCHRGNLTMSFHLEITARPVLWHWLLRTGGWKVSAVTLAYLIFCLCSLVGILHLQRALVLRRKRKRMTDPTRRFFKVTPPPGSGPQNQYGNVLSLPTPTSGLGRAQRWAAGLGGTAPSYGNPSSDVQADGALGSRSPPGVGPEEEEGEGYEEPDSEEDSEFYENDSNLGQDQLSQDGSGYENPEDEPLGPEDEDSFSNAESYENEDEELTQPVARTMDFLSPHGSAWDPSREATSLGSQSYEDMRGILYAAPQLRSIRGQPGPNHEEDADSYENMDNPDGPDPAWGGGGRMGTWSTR

T2: human CD19 (human, UniProt P15391 20-291)
T2 construct: also called B-Lymphocyte Surface Antigen B4; recombinant CD19 extracellular domain
T2 sequence (looked up): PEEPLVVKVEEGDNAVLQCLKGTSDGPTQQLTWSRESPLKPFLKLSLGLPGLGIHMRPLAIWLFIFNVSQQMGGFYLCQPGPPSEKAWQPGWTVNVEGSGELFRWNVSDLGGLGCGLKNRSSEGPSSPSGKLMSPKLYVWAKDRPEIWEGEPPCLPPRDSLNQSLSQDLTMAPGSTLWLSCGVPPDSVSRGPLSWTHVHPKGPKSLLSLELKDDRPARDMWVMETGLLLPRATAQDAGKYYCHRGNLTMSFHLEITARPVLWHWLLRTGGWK

B1: SEQ ID NO 21 (antibody, V domains shown)
VH: EVQLVESGGGLVQPGGSLRLSCVASGFTFSSYWMSWVRQAPGKGLEWVANIKQDGSEKEYVDSVKGRFTISRDNAKNSLYLQMNSLRAEDTAVYYCASGVYSFDYRGQGTLVTVSS
notes: Heavy chain-only antibody (UniAb, human IgG, no light chain, no CH1)
B2: SEQ ID NO 17 (antibody, V domains shown)
VH: B1 VH with V23A, T28S, S31D, Y32F, N50T, K52S, D54A, E59D, N77K
notes: as for B1
B3: SEQ ID NO 16 (antibody, V domains shown)
VH: B1 VH with L11M, V23A, N50T, K52N, E59D, N77K, Y80L
notes: as for B1
B4: SEQ ID NO 19 (antibody, V domains shown)
VH: B1 VH with S31D, K52N, Q53K, D54A, K58E, E59F, N84D
notes: as for B1
B5: SEQ ID NO 18 (antibody, V domains shown)
VH: B1 VH with Q13K, V23E, N50H, E59Y
notes: as for B1
B6: SEQ ID NO 15 (antibody, V domains shown)
VH: B1 VH with V12A, V23A, Y32F, N50T, I51M, K52N, E59D, R87T
notes: as for B1
B7: SEQ ID NO 14 (antibody, V domains shown)
VH: B1 VH with V23A, S31N, L45Q, N50T, K52N, E57D, E59D, N77K
notes: as for B1
B8: SEQ ID NO 20 (antibody, V domains shown)
VH: B1 VH with R19T, S31D, W33Y, V37I, E59F, A75P, N84D, A88V
notes: as for B1

Target: T1, human CD19 on CD19-positive cells …
Experiment: cell binding, flow cytometry
Description: Binding to CD19 positive cells was assessed by flow cytometry (Guava easyCyte 8HT, EMD Millipore) using the Daudi cell line (ATCC). Briefly, 100,000 target cells were stained with a dilution series of purified UniAbs™ for 30 minutes at 4° C. Following incubation, the cells were washed twice with flow cytometry buffer (1X PBS, 1% BSA, 0.1% NaN₃) and stained with goat F(ab′)2 anti-human IgG conjugated to R-phycoerythrin (PE) (Southern Biotech, cat. #2042-09) to detect cell-bound antibodies. After a 20-minute incubation at 4° C., the cells were washed twice with flow cytometry buffer and then mean fluorescence intensity (MFI) was measured by flow cytometry. EC50 values were calculated using GraphPad Prism 7. Binding to cynomolgus CD19 positive cells was determined using the same protocol with the following modifications: the target cells were from CHO cells stably transfected to express the extracellular domain of cynomolgus CD19 and each antibody was tested at a single concentration (˜1.7 μg/mL) so EC50 values were not calculated.

binding result	Binder
binds	B1
binds	B2
binds	B3
binds	B4
binds	B5
binds	B6
binds	B7
binds	B8

Target: T2, human CD19
Experiment: ELISA on recombinant CD19 extracellular domain and/or cell-binding assay

binding result	Binder
binds	B1
binds	B2
binds	B3
binds	B4
binds	B5
binds	B6
binds	B7
binds	B8
